Measured values as given in US6077686, “Shc proteins” (Mount Sinai Hospital Corporation, dated 2000).
Changes are numbered by the printed parent chain. Names may count otherwise.

B1: GST fusion protein of the ShcC PTB domain (wild type) (other)
chain: LGPGVTYVVKYLGCIEVLRSMRSLDFSTRTQVTREAISRVCERVPGAKGALKKRKPPSKMLSSILGKSNLQFAGMSISLTISTASLNLRTPDSKQIIANHHMRSISFASGGDPDTTDYVAYVAKDPVNRRACHILECCDGLAQDVIGSIGQAFELRFKQYL
B2: GST-ShcC PTB domain mutant G32R (other)
chain: B1 chain with G4R
B3: GST-ShcC PTB domain mutant M130I/S132V (other)
chain: B1 chain with M102I, S104V
B4: GST-ShcC PTB domain mutant T118S (other)
chain: B1 chain with T90S
B5: GST-ShcC PTB domain mutant G32R/A136T/C166R (other)
chain: B1 chain with G4R, A108T, C138R
B6: GST-ShcC PTB domain mutant V36M (other)
chain: B1 chain with V8M
B7: GST-ShcC PTB domain mutant T111I (other)
chain: B1 chain with T83I
B8: GST-ShcC PTB domain mutant E63G (other)
chain: B1 chain with E35G
B9: GST-ShcC PTB domain mutant G30R/H128Q (other)
chain: B1 chain with G2R, H100Q
B10: GST-ShcC PTB domain mutant A136T (other)
chain: B1 chain with A108T
B11: GST-ShcC PTB domain mutant G139E/D140N (other)
chain: B1 chain with G111E, D112N
B12: GST-ShcC PTB domain mutant T58A (other)
chain: B1 chain with T30A
B13: GST-ShcC PTB domain mutant A136T/C166R (other)
chain: B1 chain with A108T, C138R
B14: GST-ShcC PTB domain mutant S86C (other)
chain: B1 chain with S58C

Target: autophosphorylated EGF-receptor (from lysates of EGF-stimulated A431 cells) (human, UniProt P00533, autophosphorylated on tyrosine (sites not given))
Assay: binding of GST-PTB to the activated EGFR, normalized to wild type

Relative Binding | Molecule
1 | B1
0.93 | B2
1 | B3
0.81 | B4
0.14 | B5
1 | B6
1.2 | B7
0.087 | B8
1 | B9
0.16 | B10
0.073 | B11
1.2 | B12
0.12 | B13
1.2 | B14

Target: EGFR in living cells (293T cells stimulated with EGF; NIH/3T3 cells transformed by overexpression of the EGFR)
Assay: not given

EGF-induced MAPK activity (Gal4-Elk-1 / Gal4-Luc luciferase in 293T cells) [%] | Molecule
50 | isolated ShcC SH2 domain expressed in cells (HA epitope-tagged SH2 domain)
